T1: HDP1 homeodomain-like (Plasmodium falciparum, UniProt Q8IKH4 2990-3078)
T1 sequence: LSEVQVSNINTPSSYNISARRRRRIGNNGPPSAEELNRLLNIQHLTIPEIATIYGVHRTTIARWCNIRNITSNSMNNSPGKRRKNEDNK

T2: SIP2 D1 (Plasmodium falciparum, UniProt C6KSN9 177-235)
T2 sequence: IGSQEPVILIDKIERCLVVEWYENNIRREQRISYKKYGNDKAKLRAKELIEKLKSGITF

B1: GTGCAC_site9533 (dsDNA)
DNA 1: TTTTCTATTTAATTGGTGCACTGATATATACACATA
DNA 2: TATGTGTATATATCAGTGCACCAATTAAATAGAAAA
B2: GTGCAC_site9569 (dsDNA)
DNA 1: TATTTGTATATATGTGTGCACGTATAATCCATTAAA
DNA 2: TTTAATGGATTATACGTGCACACATATATACAAATA
B3: GTGCAC_site9426 (dsDNA)
DNA 1: ACGTGTATTTATTTAGTGCACTTTATATTTTTTCTT
DNA 2: AAGAAAAAATATAAAGTGCACTAAATAAATACACGT
B4: GTGCAC_site9474 (dsDNA)
DNA 1: GCCCCCAAATTATGTGTGCACTTTATATTCCTGAGA
DNA 2: TCTCAGGAATATAAAGTGCACACATAATTTGGGGGC
B5: GTGCAC_negctrl_site138 (dsDNA)
DNA 1: AAAAACAATCATTTTAAATAAAAATCTCTAATTTAA
DNA 2: TTAAATTAGAGATTTTTATTTAAAATGATTGTTTTT
B6: GTGCAC_negctrl_site257 (dsDNA)
DNA 1: TGCAAAAAAAAAAAAAAAAAATATATGGAAATATAT
DNA 2: ATATATTTCCATATATTTTTTTTTTTTTTTTTTGCA
B7: GTGCAC_site9829 (dsDNA)
DNA 1: GAACGAAATAAGTGTGTGCACATGTAACCACAAATC
DNA 2: GATTTGTGGTTACATGTGCACACACTTATTTCGTTC
B8: GTGCAC_site10284 (dsDNA)
DNA 1: TTCTCCTAATAGTTAGTGCACTACATAACTAAGAAA
DNA 2: TTTCTTAGTTATGTAGTGCACTAACTATTAGGAGAA
B9: GTGCAC_site9574 (dsDNA)
DNA 1: ATCATATTTATGTTGGTGCATTATACATAAAGTTTA
DNA 2: TAAACTTTATGTATAATGCACCAACATAAATATGAT
B10: GTGCAC_site9772 (dsDNA)
DNA 1: TATATTATCAAAATGGTGCAATAATTTCTATATTAT
DNA 2: ATAATATAGAAATTATTGCACCATTTTGATAATATA
B11: GTGCAC_site10033 (dsDNA)
DNA 1: TTATAAAATTACTTGGTGCATTAGAATATTTCAATA
DNA 2: TATTGAAATATTCTAATGCACCAAGTAATTTTATAA
B12: GTGCAC_site10218 (dsDNA)
DNA 1: GATATATATACATGTGTGCACCATGCAACTTGTTTT
DNA 2: AAAACAAGTTGCATGGTGCACACATGTATATATATC
B13: GTGCAC_site9920 (dsDNA)
DNA 1: ATAATTATATGATGAGTGCACAATAAAAATATCGTT
DNA 2: AACGATATTTTTATTGTGCACTCATCATATAATTAT
B14: GTGCAC_site9798 (dsDNA)
DNA 1: ATCATATGTATGGTGGTGCATTATGCATGAATTTTA
DNA 2: TAAAATTCATGCATAATGCACCACCATACATATGAT
B15: GTGCAC_site9796 (dsDNA)
DNA 1: ATATATATATATATAGTGCAAATAAAAAATAGACAA
DNA 2: TTGTCTATTTTTTATTTGCACTATATATATATATAT
B16: GTGCAC_site10741 (dsDNA)
DNA 1: AAACAAAACAACTAAGTGCATAAAAATAAAATAAAT
DNA 2: ATTTATTTTATTTTTATGCACTTAGTTGTTTTGTTT
B17: GTGCAC_site10685 (dsDNA)
DNA 1: TTATATTTCACAAATGTGCACAGATACATATATATA
DNA 2: TATATATATGTATCTGTGCACATTTGTGAAATATAA
B18: GTGCAC_site9436 (dsDNA)
DNA 1: AACGAGCAAGACGGGGTGCACACAAACTAATATGCC
DNA 2: GGCATATTAGTTTGTGTGCACCCCGTCTTGCTCGTT
B19: GTGCAC_site9967 (dsDNA)
DNA 1: ACATCGATTTATATTCTGCACTGAAGAAACTACAAC
DNA 2: GTTGTAGTTTCTTCAGTGCAGAATATAAATCGATGT
B20: GTGCAC_site9591 (dsDNA)
DNA 1: ACATATTATATATGTGTGCACATATATATATATTTA
DNA 2: TAAATATATATATATGTGCACACATATATAATATGT
B21: GTGCAC_site10490 (dsDNA)
DNA 1: TTTATATTTATTGTTGTGCACAGAACCATATTCGTT
DNA 2: AACGAATATGGTTCTGTGCACAACAATAAATATAAA
B22: GTGCAC_negctrl_site342 (dsDNA)
DNA 1: TATTTATATAATCCTATAATATTACTACTATCTTTA
DNA 2: TAAAGATAGTAGTAATATTATAGGATTATATAAATA
B23: GTGCAC_site9541 (dsDNA)
DNA 1: ATGAGTAACATATTTGTGCACATATGGTTATTTTTA
DNA 2: TAAAAATAACCATATGTGCACAAATATGTTACTCAT
B24: GTGCAC_site10292 (dsDNA)
DNA 1: ATAATATGTTATTAAGTGCATATTAATTATTATTAT
DNA 2: ATAATAATAATTAATATGCACTTAATAACATATTAT
B25: GTGCAC_site10202 (dsDNA)
DNA 1: AAAATGTAGAAATGGGTGCACACACATATATAATAT
DNA 2: ATATTATATATGTGTGTGCACCCATTTCTACATTTT
B26: GTGCAC_site10017 (dsDNA)
DNA 1: ATATATACTATAATAGTGCATTAAAAAAGTAAAAAT
DNA 2: ATTTTTACTTTTTTAATGCACTATTATAGTATATAT
B27: GTGCAC_negctrl_site631 (dsDNA)
DNA 1: AGAAGGTAAATAATTTACCCATATATATAAATATAT
DNA 2: ATATATTTATATATATGGGTAAATTATTTACCTTCT
B28: GTGCAC_site10094 (dsDNA)
DNA 1: TATTAACAAATTTATGTGCACTGAGGACAAATATAT
DNA 2: ATATATTTGTCCTCAGTGCACATAAATTTGTTAATA
B29: GTGCAC_site9736 (dsDNA)
DNA 1: ATATTTTATGTGTTGGTGCACATCTTTATTTAAACT
DNA 2: AGTTTAAATAAAGATGTGCACCAACACATAAAATAT
B30: GTGCAC_negctrl_site23 (dsDNA)
DNA 1: TCCTATATATAAATATTAATATATATGTATTGGTAT
DNA 2: ATACCAATACATATATATTAATATTTATATATAGGA
B31: GTGCAC_site9965 (dsDNA)
DNA 1: AAGAACAAATATGAGGTGCAACACAATATATTATTA
DNA 2: TAATAATATATTGTGTTGCACCTCATATTTGTTCTT
B32: GTGCAC_site9478 (dsDNA)
DNA 1: ATATTATATTGGATGTTGCACTTAACAAAAGGATAT
DNA 2: ATATCCTTTTGTTAAGTGCAACATCCAATATAATAT
B33: GTGCAC_site10095 (dsDNA)
DNA 1: CTATATATAACCCATGTGCACTTTTTATGTACAATA
DNA 2: TATTGTACATAAAAAGTGCACATGGGTTATATATAG
B34: GTGCAC_site9629 (dsDNA)
DNA 1: ATATCAAATAATTTAGTGCACTTTTTTTTTTCTTTT
DNA 2: AAAAGAAAAAAAAAAGTGCACTAAATTATTTGATAT
B35: GTGCAC_site9679 (dsDNA)
DNA 1: TTTCTTTAATATATAGTGCATGTAAATTTTACAATA
DNA 2: TATTGTAAAATTTACATGCACTATATATTAAAGAAA
B36: GTGCAC_site10491 (dsDNA)
DNA 1: TAGTGATATAATTATGTGCACTTAATACAGGTCGAT
DNA 2: ATCGACCTGTATTAAGTGCACATAATTATATCACTA
B37: GTGCAC_site10780 (dsDNA)
DNA 1: TACAGTTCAATGAAGGTGCAATTAATATATAAAATA
DNA 2: TATTTTATATATTAATTGCACCTTCATTGAACTGTA

Each binder was assayed against T1, HDP1 homeodomain-like (assay: gcPBM; about 25 ug protein; PBS, 1% milk, 0.2 mg/ml BSA, salmon testes DNA, 0.03% Triton X-100). Settings: tags: N-terminal GST (pGEX-4T-1), kept; chain copies: 2; label: surface-attached array probe.

Binder	binding signal
B1	10.5 ln median PBM intensity, better of two orientations
B2	9.32 ln median PBM intensity, better of two orientations
B3	11.3 ln median PBM intensity, better of two orientations
B4	9.62 ln median PBM intensity, better of two orientations
B5	5.6 ln median PBM intensity, better of two orientations
B6	6.13 ln median PBM intensity, better of two orientations
B7	9.93 ln median PBM intensity, better of two orientations
B8	11.1 ln median PBM intensity, better of two orientations
B9	10.4 ln median PBM intensity, better of two orientations
B10	10 ln median PBM intensity, better of two orientations
B11	11.1 ln median PBM intensity, better of two orientations
B12	9.57 ln median PBM intensity, better of two orientations
B13	9.38 ln median PBM intensity, better of two orientations
B14	10.4 ln median PBM intensity, better of two orientations
B15	10 ln median PBM intensity, better of two orientations
B16	8.67 ln median PBM intensity, better of two orientations
B17	11.1 ln median PBM intensity, better of two orientations
B18	9.89 ln median PBM intensity, better of two orientations
B19	7.69 ln median PBM intensity, better of two orientations

Binder	binding signal
B20	9.98 ln median PBM intensity, better of two orientations
B21	11.1 ln median PBM intensity, better of two orientations
B22	6.28 ln median PBM intensity, better of two orientations
B23	11.1 ln median PBM intensity, better of two orientations
B24	9.18 ln median PBM intensity, better of two orientations
B25	9.58 ln median PBM intensity, better of two orientations
B26	9.53 ln median PBM intensity, better of two orientations
B27	6.21 ln median PBM intensity, better of two orientations
B28	10.3 ln median PBM intensity, better of two orientations
B29	9.88 ln median PBM intensity, better of two orientations
B30	6.35 ln median PBM intensity, better of two orientations
B31	10.2 ln median PBM intensity, better of two orientations
B32	8.41 ln median PBM intensity, better of two orientations
B33	10.1 ln median PBM intensity, better of two orientations
B34	10.8 ln median PBM intensity, better of two orientations
B35	8.12 ln median PBM intensity, better of two orientations
B36	11.1 ln median PBM intensity, better of two orientations
B37	9.1 ln median PBM intensity, better of two orientations

What follows are binders tested against AP2-I D3 (Plasmodium falciparum, UniProt Q8IJW6 910-1027) in the same assay as above. Settings: tags: N-terminal GST (pGEX-4T-1), kept; label: surface-attached array probe.

Binder	binding signal
B5	6.74 ln median PBM intensity, better of two orientations
B6	6.92 ln median PBM intensity, better of two orientations
B7	9.08 ln median PBM intensity, better of two orientations
B8	12.4 ln median PBM intensity, better of two orientations
B9	12.1 ln median PBM intensity, better of two orientations
B10	12 ln median PBM intensity, better of two orientations
B11	12.1 ln median PBM intensity, better of two orientations
B13	11.2 ln median PBM intensity, better of two orientations
B14	12 ln median PBM intensity, better of two orientations
B15	11.2 ln median PBM intensity, better of two orientations
B16	10.7 ln median PBM intensity, better of two orientations
B17	10.1 ln median PBM intensity, better of two orientations
B19	9.3 ln median PBM intensity, better of two orientations
B20	9.12 ln median PBM intensity, better of two orientations
B22	6.86 ln median PBM intensity, better of two orientations
B23	10.4 ln median PBM intensity, better of two orientations
B24	9.72 ln median PBM intensity, better of two orientations
B26	12 ln median PBM intensity, better of two orientations
B31	9.55 ln median PBM intensity, better of two orientations
B32	9.38 ln median PBM intensity, better of two orientations
B34	12 ln median PBM intensity, better of two orientations
B35	9.43 ln median PBM intensity, better of two orientations
B36	11.1 ln median PBM intensity, better of two orientations
B37	11.1 ln median PBM intensity, better of two orientations

The binders below were run against T2, SIP2 D1 in the same assay as above. Settings: tags: N-terminal GST (pGEX-4T-1), kept; label: surface-attached array probe.

Binder	binding signal
B1	11.6 ln median PBM intensity, better of two orientations
B2	11.3 ln median PBM intensity, better of two orientations
B3	10.7 ln median PBM intensity, better of two orientations
B4	11.2 ln median PBM intensity, better of two orientations
B12	11.1 ln median PBM intensity, better of two orientations
B18	11.8 ln median PBM intensity, better of two orientations
B21	10.4 ln median PBM intensity, better of two orientations
B25	11.7 ln median PBM intensity, better of two orientations
B27	6.91 ln median PBM intensity, better of two orientations
B28	10.5 ln median PBM intensity, better of two orientations
B29	10.9 ln median PBM intensity, better of two orientations
B30	6.91 ln median PBM intensity, better of two orientations
B33	10.2 ln median PBM intensity, better of two orientations

Reference: publication PMC11417369, “DNA sequence and chromatin differentiate sequence-specific transcription factor binding in the human malaria parasite Plasmodium falciparum”
